In US20260007756A1, “COMPOUND AND USE THEREOF” (COHERENT BIOPHARMA (SUZHOU) LIMITED, priority 2022, published 2026):
In brackets after ≈: the same amount, converted by molar mass. Where two headings read alike, the source gives them in different places. Values belong to the compound of their own block, whether it stands above or below them.

Assays:
[1] = system: VCaP; test: Expansion inhibition of tumor cells (Example 9, CellTiter-Glo); assay type: cell-based, human; conditions: 72 h
Description: (§1) Information on cell lines: LNCaP (human prostate cancer cell) and VCaP (human prostate cancer cell)
(§2) Negative and blank controls were set.

[2] = system: LNCaP; test: as above; assay type: cell-based, human; conditions: 72 h
Description: as §1, §2

[3] = system: SK-OV-3; test: Expansion inhibition of tumor cells (Example 10, CCK-8); assay type: cell-based; conditions: Homo sapiens, SK-OV-3 (FOLR1 overexpression), 72 h
Experimental: Samples were serially diluted with medium (serially 5-fold diluted from 10 μM) to 9 concentrations. […] Negative and blank controls were set.
A CCK-8 developing solution was added at 10 μL/well (10% of the liquid volume in the wells). The plates were incubated at 37° C. for a proper time (the OD value was controlled within the range of 1.0-2.5 as possible). The plate covers were removed, and the 96-well plates were loaded on a microplate reader (Molecular Devices SpectraMax iD5) to read the measurement at 450 nm.

[4] = Plasma stability study 2; assay type: in vitro ADME; conditions: mouse plasma, 37° C.
Experimental: • 1) The conjugate compounds were prepared into 1 mg/mL stock solutions with 0.1% TFA-acetonitrile water (1:1); • 2) 10 μL of 1 mg/mL compound stock solution was added into 90 μL of fresh plasma, and the mixture was well mixed by gentle shaking, and transferred to a thermostatic incubator at 37° C. for 0 h, 0.5 h, 1 h, 2 h, 4 h, 6 h, or 24 h of incubation; • 3) at the time points, samples were taken out and 300 μL of methanol solution (containing 10 ng/ml of terfenadine) was added for protein precipitation; • 4) the mixture was centrifuged (13 min, 4° C., 12000 rpm) and the supernatant was collected, and preserved in a −80° C. refrigerator; after collection, the samples were loaded for LC-MS analysis.

[5] = Solubility study in PBS; assay type: physicochemical; conditions: aqueous buffer, thermodynamic from solid; PBS (pH 7.2 to 7.4); read-out: Solubility, concentration
Experimental: The mixture was vortexed for 2 min until the solid was dissolved. The solubility was calculated as: C=m/V, C: concentration, m: sample weight, V: PBS total volume.

[6] = system: C4-2; conditions: C4-2, 72 h, CellTiter-Glo
Experimental: Cells were prepared in advance, trypsinized, collected, counted, diluted to 1.5×10^4 cells/mL in a complete cell culture medium, and plated in 96-well plates. The diluted cell suspension was added at 100 μL/well, and negative and blank control wells were set on each plate. The 96-well plates with the added cells were incubated overnight at 37° C. in a 5% CO2 incubator.
Samples were serially diluted with medium (serially 3-fold diluted from 10 μM) to 9 concentrations. The medium in the plates was discarded, and the drug solutions were added at 100 μL per well to a 96-well plate in triplicate. Negative and blank controls were set. The plates were incubated at 37° C. for 72 h in a 5% CO2 incubator.
The CellTiter-Glo buffer was thawed and warmed to room temperature, and the CellTiter-Glo substrate was warmed to room temperature. The CellTiter-Glo buffer was added to the flask containing CellTiter-Glo substrate to dissolve the substrate, thereby preparing a CellTiter-Glo working solution, which was then vortexed slowly to complete dissolution. The cell culture plates were equilibrated at room temperature for 30 min, before the CellTiter-Glo working solution was added at 50 μL/well (about half the volume of cell culture medium in each well). The plate was covered by aluminum foil to keep out of light. The culture plate was shaken on an orbital shaker for 2 min to induce cell lysis. The culture plate was left to stand at room temperature for 10 min to stabilize the luminescence signals. The luminescence signal was detected on a microplate reader (Molecular Devices SpectraMax iD5).
Four-parameter curves were fitted using GraphPad Prism 8.0.2 to give IC50 values.

[7] = target: T1, BRD4 (Homo sapiens, UniProt O60885); test: Target protein degradation activity, Western Blot; assay type: cell-based
T1 construct: endogenous in cells; host or cells: MDA-MB-231, 22RV1
Experimental: Information on cell lines: MDA-MB-231 (human breast cancer cell) and 22RV1 (human prostate cancer cell)
• 1) A proper amount of RIPA lysis buffer was added to the Protease Inhibitor Cocktail (1:100) a few minutes before use. • 2) The medium of the cells was discarded. The cells were collected by cell scraper, centrifuged, and washed twice with pre-cooled PBS. The lysis buffer was added at 300 μL per dish. The centrifuge tube was placed on ice and mixed by pipetting for 5 min to allow the lysis buffer to fully contact the cells. • 3) After 30 min of lysis, the lysate was collected, transferred to a centrifuge tube, and centrifuged for 15 min at 12000×g to pelletize the cell debris. • 4) The supernatant was transferred to a new centrifuge tube, for subsequent Western Blot. […]
The antibody marked by HRP was coupled with an enhanced chemiluminescence reagent for chromogenesis, and the exposure was conducted via an X-ray film. The positions of the antigen-antibody (primary antibody)-antibody (secondary antibody) complex on the nitrocellulose membrane were determined by means of development, washing, and fixation. […]

[8] = system: MDA-MB-231; assay type: cell-based, human; conditions: MDA-MB-231, 72 h, CellTiter-Glo
Description: as §2

[9] = system: 22RV1; assay type: cell-based, human; conditions: 22RV1, 72 h, CellTiter-Glo
Description: as §2

[10] = system: β-glucosidase; conditions: PBS pH 6.8, 25° C.
Experimental: • 1) CR202AL was formulated into a 500 μg/mL stock solution with PBS (pH 6.8); • 2) 100 μL of 500 μg/mL compound stock solution was added to 775 μL of PBS (pH=6.8) before 125 μL of 100 U/mL β-glucosidase was added, and the mixture was well mixed by gentle shaking. • 3) The cleavage reaction system in step 2) was transferred to a thermostatic incubator at 25° C. for 0 h, 1 h, 2 h, 4 h, or 24 h of incubation. Samples were taken and loaded at various time points for LC-MS analysis.

SMILES: Cc1ncsc1-c1ccc(CNC(=O)[C@@H]2C[C@@H](O)CN2C(=O)[C@@H](NC(=O)COCCCCOc2ccc(-c3ccc(N4C(=S)N(c5ccc(C#N)c(C(F)(F)F)c5)C(=O)C4(C)C)cc3)cc2)C(C)(C)C)cc1 [CR202Z5, ARCC-4]
IC50 ([1]; Homo sapiens): 183 nM
IC50 ([2]; Homo sapiens): 373 nM

SMILES: Cc1ncsc1-c1ccc(CNC(=O)C2CC(O)CN2C(=O)C(NC(=O)COCCOCCOCC(=O)NC2(C(=O)NCCCn3cc(-c4ccc(OC(F)(F)F)cc4)c4cc(CN5CCN(Cc6c(Cl)cccc6Cl)CC5)ccc43)CCNCC2)C(C)(C)C)cc1 (stereo not drawn) [CR202CI]
IC50 [3]: 0.3 nM

SMILES: CC[C@@H]1C(=O)N(C)c2cnc(Nc3ccc(-c4cn([C@H]5CC[C@@H](N(CCOCCC#Cc6cccc7c6CN(C6CCC(=O)NC6=O)C7=O)C(=O)OCc6ccc(O[C@@H]7O[C@H](C(=O)O)[C@@H](O)[C@H](O)[C@H]7O)c(NC(=O)CCNC(=O)COCCOCCn7cc(C[C@H](NC(=O)[C@H](CCCCN)NC(=O)[C@H](CC(=O)O)NC(=O)[C@H](CC(=O)O)NC(=O)Cc8ccc(CNC(=O)NCCCC[C@H](NC(=O)N[C@@H](CCC(=O)O)C(=O)O)C(=O)O)cc8)C(=O)N[C@@H](CCCCNC(=O)CC[C@H](NC(=O)c8ccc(NCc9cnc%10[nH]c(N)nc(=O)c%10n9)cc8)C(=O)O)C(N)=O)nn7)c6)CC5)nn4)cc3OC)nc2N1C1CCCC1 (stereo partly drawn) [CR202AL]
CR20274 release rate (actual release/theoretical release) ([4]; 0 h): 0.01%
Residual rate of principal component ([4]; 0 h): 76.04%
CR20274 release rate (actual release/theoretical release) ([4]; 0.5 h): 0.47%
remaining at 0.5 h, 100 μg/mL ([4]; 0.5 h, read-out: Residual rate of principal component): 69.8%
CR20274 release rate (actual release/theoretical release) ([4]; 1 h): 0.86%
remaining at 1 h, 100 μg/mL ([4]; 1 h, read-out: Residual rate of principal component): 78.1%
CR20274 release rate (actual release/theoretical release) ([4]; 2 h): 0.96%
remaining at 2 h, 100 μg/mL ([4]; 2 h, read-out: Residual rate of principal component): 75.6%
CR20274 release rate (actual release/theoretical release) ([4]; 4 h): 2.60%
remaining at 4 h, 100 μg/mL ([4]; 4 h, read-out: Residual rate of principal component): 74.9%
CR20274 release rate (actual release/theoretical release) ([4]; 6 h): 3.69%
remaining at 6 h, 100 μg/mL ([4]; 6 h, read-out: Residual rate of principal component): 57.1%
CR20274 release rate (actual release/theoretical release) ([4]; 24 h): 28.17%
Residual rate of principal component ([4]; 24 h): 1.20%
solubility at 2 min [5]: 5700 µg/mL (≈ 1910 µM)
IC50 [6]: 0.5 nM
Degradation of BRD4 (Western Blot) ([7]; 3 nM over 6 h): almost completely degrading
Degradation of BRD4 (Western Blot) ([7]; at 24 h (FIG. 4B)): still retain strong degradation activity
IC50 [8]: 2.5 nM
IC50 [9]: 6.3 nM
CR20274 release rate of CR202AL after cleavage ([10]; 0 h): 5.16%
Principal component residue of CR202AL after cleavage ([10]; 0 h): 100.00%
CR20274 release rate of CR202AL after cleavage ([10]; 1 h): 107.33%
Principal component residue of CR202AL after cleavage ([10]; 1 h): 26.70%
CR20274 release rate of CR202AL after cleavage ([10]; 2 h): 146.03%
Principal component residue of CR202AL after cleavage ([10]; 2 h): 9.75%
CR20274 release rate of CR202AL after cleavage ([10]; 4 h): 146.54%
Principal component residue of CR202AL after cleavage ([10]; 4 h): 4.87%
CR20274 release rate of CR202AL after cleavage ([10]; 24 h): 100.80%
Principal component residue of CR202AL after cleavage ([10]; 24 h): 0.00%

Results, then the compound that gave them:

IC50 [3]: 31.5 nM
SMILES: Cc1ncsc1-c1ccc(CNC(=O)C2CC(O)CN2C(=O)C(NC(=O)COCCOCC(=O)NC2(C(=O)NCCCn3cc(-c4ccc(OC(F)(F)F)cc4)c4cc(CN5CCN(Cc6c(Cl)cccc6Cl)CC5)ccc43)CCNCC2)C(C)(C)C)cc1 (stereo not drawn) [CR202CF]

IC50 [1]: 12.4 nM
IC50 [2]: 418 nM
SMILES: Cc1ncsc1-c1ccc([C@H](CC(=O)N2CCC(N3CCC(C#Cc4ccc(C(=O)NC5C(C)(C)C(Oc6ccc(C#N)c(Cl)c6)C5(C)C)cc4)CC3)CC2)NC(=O)[C@@H]2C[C@@H](O)CN2C(=O)[C@@H](NC(=O)C2(F)CC2)C(C)(C)C)cc1 (stereo partly drawn) [CR202Z9, ARD-69]
